Measurements published in paper PMC3098244.

Columns and labels:
K48-linked diubiquitin = K48-linked diubiquitin (UniProt P0CG48); assay: ITC; conditions: domain or fragment
K63-linked diubiquitin = K63-linked diubiquitin (UniProt P0CG48); assay: ITC; conditions: domain or fragment

Chain of GB1-HSJ1a-UIM12 (UIM domain of HSJ1a, residues 206-272, fused to GB1) (P25686 206-272): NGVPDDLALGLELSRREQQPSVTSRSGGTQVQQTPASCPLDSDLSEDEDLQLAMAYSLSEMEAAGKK

Kd (K48-linked diubiquitin): 57 µM
Kd (K63-linked diubiquitin): 153 µM
Substance: GB1-HSJ1a-UIM12 (UIM domain of HSJ1a, residues 206-272, fused to GB1) (from UniProt P25686-2 206-272)
